Assay results: patent publication EP4039268A1 (IMBA-Institut für Molekulare Biotechnologie GmbH, dated 2022)

B1: Olr1 CRD-mouse IgG2a-Fc fusion protein (Fc fusion)
chain: HKENCYLFHGPFSWEKNRQTCQSLGGQLLQINGADDLTFILQAISHTTSPFWIGLHRKKPGQPWLWENGTPLNFQFFKTRGVSLQLYSSGNCAYLQDGAVFAENCILIAFSICQGGGSGGGSGGGS
B2: Acan CRD-mouse IgG2a-Fc fusion protein (Fc fusion)
chain: not shown
B3: Asgr1 CRD-mouse IgG2a-Fc fusion protein (Fc fusion)
chain: YEGSCYWFSSSVRPWTEADKYCQLENAHLVVVTSRDEQNFLQRHMGPLNTWIGLTDQNGPWKWVDGTDYETGFQNWRPEQPDNWYGHGLGGGEDCAHFTTDGRWNDDVCRRPYRWVCEGGGSGGGSGGGS
B4: Atrn CRD-mouse IgG2a-Fc fusion protein (Fc fusion)
chain: VGNSCLKITTAKENYDNAKLSCRNHNAFLASLTSQKKVEFVLKQLRLMQSSQSMSKLTLTPWVGLRKINVSYWCWEDMSPFTNSLLQWMPSEPSDAGFCGILSEPSTRGLKAATCINPLNGSVCEGGGSGGGSGGGS
B5: Lgals4_1 CRD-mouse IgG2a-Fc fusion protein (Fc fusion)
chain: YKRPIPGGLSVGMSVYIQGMAKENMRRFHVNFAVGQDDGADVAFHFNPRFDGWDKVVFNTMQSGQWGKEEKKKSMPFQKGKHFELVFMVMPEHYKVVVNGNSFYEYGHRLPVQMVTHLQVDGDLELQSINFLGGGSGGGSGGGS
B6: Reg3g CRD-mouse IgG2a-Fc fusion protein (Fc fusion)
chain: YGSYCYALFSVSKNWYDADMACQKRPSGHLVSVLSGAEASFLSSMIKSSGNSGQYVWIGLHDPTLGYEPNRGGWEWSNADVMNYINWETNPSSSSGNHCGTLSRASGFLKWRENYCNLELPYVCKGGGSGGGSGGGS
B7: Reg3b CRD-mouse IgG2a-Fc fusion protein (Fc fusion)
chain: YGSYCYALFQIPQTWFDAELACQKRPGGHLVSVLNSAEASFLSSMVKRTGNSYQYTWIGLHDPTLGAEPNGGGWEWSNNDVMNYFNWERNPSTALDRAFCGSLSRASGFLKWRDMTCEVKLPYVCKGGGSGGGSGGGS
B8: Clec2d CRD-mouse IgG2a-Fc fusion protein (Fc fusion)
chain: VENKCFYFSEYPSNWTFAQAFCMAQEAQLARFDNQDELNFLMRYKANFDSWIGLHRESSEHPWKWTDNTEYNNTIPIRGEERFAYLNNNGISSTRIYSLRMWICSKLNSYSLHCQTGGGSGGGSGGGS
B9: Pla2r1_2 CRD-mouse IgG2a-Fc fusion protein (Fc fusion)
chain: FNRKCYKLKKDRKSWLGALHSCQSNDSVLMDVASLAEVEFLVSLLRDENASETWIGLSSNKIPVSFEWSSGSSVIFTNWYPLEPRILPNRRQLCVSAEESDGRWKVKDCKERLFYICKGGGSGGGSGGGS
B10: Reg3a CRD-mouse IgG2a-Fc fusion protein (Fc fusion)
chain: YRSHCYALVMTPKSWFQADLVCQKRPSGHLVSILSGGEASFVSSLVNGRVDNYQDIWIGLHDPTMGQQPNGGGWEWSNSDVLNYLNWDGDPSSTVNRGHCGSLTASSGFLKWGDYYCDGTLPFVCKGGGSGGGSGGGS
B11: Clec18a CRD-mouse IgG2a-Fc fusion protein (Fc fusion)
chain: IDGDCFMVSPEADTYYGAKMKCQGKGGVLAQIESQKVQDILAFYLGRLETTNEVTDSDFETKNFWIGLTYKAAKDSFRWTTGEHQSFTSFAFGQPDNQGFGNCVEMQASAAFNWNDQRCKTRNRYICQGGGSGGGSGGGS
B12: Pkd1l2 CRD-mouse IgG2a-Fc fusion protein (Fc fusion)
chain: not shown
B13: Siglec1 CRD-mouse IgG2a-Fc fusion protein (Fc fusion)
chain: TWGVSSPKNVQGLSGSCLLIPCIFSYPADVPVSNGITAIWYYDYSGKRQVVIHSGDPKLVDKRFRGRAELMGNMDHKVCNLLLKDLKPEDSGTYNFRFEISDSNRWLDVKGTTVTVTGGGSGGGSGGGS
B14: Chodl CRD-mouse IgG2a-Fc fusion protein (Fc fusion)
chain: VKHPCYKMAYFHELSSRVSFQEARLACESEGGVLLSLENEAEQKLIESMLQNLTKPGTGISDGDFWIGLLRSGDGQTSGACPDLYQWSDGSSSQFRNWYTDEPSCGSEKCVVMYHQPTANPGLGGPYLYQWNDDRCNMKHNYICKGGGSGGGSGGGS
B15: Cd69 CRD-mouse IgG2a-Fc fusion protein (Fc fusion)
chain: YKRTCYFFSTTTKSWALAQRSCSEDAATLAVIDSEKDMTFLKRYSGELEHWIGLKNEANQTWKWANGKEFNSWFNLTGSGRCVSVNHKNVTAVDCEANFHWVCSGGGSGGGSGGGS
B16: Cd209e CRD-mouse IgG2a-Fc fusion protein (Fc fusion)
chain: FFNGNCYFFSKSQRDWHDSMTACKEMGAQLVIIKSHEEQSFLQQTSKKNSYTWMGLSDLNKEGEWYWLDGSPLSDSFEKYWKKGQPNNVGGQDCVEFRDNGWNDAKCEQRKFWICKGGGSGGGSGGGS
B17: Pla2r1_8 CRD-mouse IgG2a-Fc fusion protein (Fc fusion)
chain: FKGNCYSFSTVLDSRSFEDAHEFCKSEGSNLLAIRDAAENSFLLEELLAFGSSVQMVWLNAQFDNNNKTLRWFDGTPTEQSNWGLRKPDMDHLKPHPCVVLRIPEGIWHFTPCEDKKGFICKGGGSGGGSGGGS
B18: Reg2 CRD-mouse IgG2a-Fc fusion protein (Fc fusion)
chain: INCPEGANAYGSYCYYLIEDRLTWGEADLFCQNMNAGHLVSILSQAESNFVASLVKESGTTASNVWTGLHDPKSNRRWHWSSGSLFLFKSWATGAPSTANRGYCVSLTSNTAYKKWKDENCEAQYSFVCKFGGGSGGGSGGGS
B19: Clec1a CRD-mouse IgG2a-Fc fusion protein (Fc fusion)
chain: YGDKCYQFYKESKNWQSCEYFCLADNATMLKISTQEELDFAMPQSYSEFFYSYWTGLSRNGSGKAWLWTDGTPYSFELFEIIIDPTNLRNRDCMTIFNGKAYSKDCKELRRCACEGGGSGGGSGGGS
B20: Siglec12 CRD-mouse IgG2a-Fc fusion protein (Fc fusion)
chain: PQEVFTLNVERKVVVQEGLCVLVPCNFSYLKKRLTDWTDSDPVHGFWYREGTDRRKDSIVATNNPIRKAVKETRNRFFLLGDPWRNDCSLNIREIRKKDAGLYFFRLERGKTKYNYMWDKMGGGSGGGSGGGS
B21: Sell CRD-mouse IgG2a-Fc fusion protein (Fc fusion)
chain: WTYHYSEKPMNWENARKFCKQNYTDLVAIQNKREIEYLENTLPKSPYYYWIGIRKIGKMWTWVGTNKTLTKEAENWGAGEPNNKKSKEDCVEIYIKRERDSGKWNDDACHKRKAALCGGGSGGGSGGGS
B22: Cd302 CRD-mouse IgG2a-Fc fusion protein (Fc fusion)
chain: FQGSCYAFLQVTINVENIEDVRKQCTDHGADMVSIHNEEENAFILDTLQKRWKGPDDLLLGMFYDTDDATFKWYDHSNMTFDKWADQDGEDLVDTCGFLYTKTGEWRKGDCEISSVEGTLGGGSGGGSGGGS
B23: Pkd1 CRD-mouse IgG2a-Fc fusion protein (Fc fusion)
chain: GNGHCYRLVAEKAPWLQAQEQCRTWAGAALAMVDSPAIQHFLVSKVTRSLDVWIGFSSVEGTEGLDPRGEAFSLESCQNWLPGEPHPATAEHCVRLGPAGQCNTDLCSAPHSYVCEGGGSGGGSGGGS
B24: Reg1 CRD-mouse IgG2a-Fc fusion protein (Fc fusion)
chain: ISCPEGSNAYSSYCYYFTEDRLTWADADLFCQNMNSGYLVSVLSQAEGNFVASLIKESGTTDANVWTGLHDPKRNRRWHWSSGSLFLYKSWATGSPNSSNRGYCVSLTSNTGYKKWKDDNCDAQYSFVCKFGGGSGGGSGGGS
B25: Sftpa1 CRD-mouse IgG2a-Fc fusion protein (Fc fusion)
chain: not shown
B26: Pla2r1_1 CRD-mouse IgG2a-Fc fusion protein (Fc fusion)
chain: SSRICYQFNLLSSLSWNQAHSSCLMQGGALLSIADEDEEDFIRKHLSKVVKEVWIGLNQLDEKAGWQWSDGTPLSYLNWSQEITPGPFVEHHCGTLEVVSAAWRSRDCESTLPYICKGGGSGGGSGGGS

The binders below were run against T1, human recombinant soluble ACE2 (human, UniProt Q9BYF1 18-740) (assay: ELISA).
T1 construct: also called hrsACE2
T1 sequence (Q9BYF1 18-740 limits assumed): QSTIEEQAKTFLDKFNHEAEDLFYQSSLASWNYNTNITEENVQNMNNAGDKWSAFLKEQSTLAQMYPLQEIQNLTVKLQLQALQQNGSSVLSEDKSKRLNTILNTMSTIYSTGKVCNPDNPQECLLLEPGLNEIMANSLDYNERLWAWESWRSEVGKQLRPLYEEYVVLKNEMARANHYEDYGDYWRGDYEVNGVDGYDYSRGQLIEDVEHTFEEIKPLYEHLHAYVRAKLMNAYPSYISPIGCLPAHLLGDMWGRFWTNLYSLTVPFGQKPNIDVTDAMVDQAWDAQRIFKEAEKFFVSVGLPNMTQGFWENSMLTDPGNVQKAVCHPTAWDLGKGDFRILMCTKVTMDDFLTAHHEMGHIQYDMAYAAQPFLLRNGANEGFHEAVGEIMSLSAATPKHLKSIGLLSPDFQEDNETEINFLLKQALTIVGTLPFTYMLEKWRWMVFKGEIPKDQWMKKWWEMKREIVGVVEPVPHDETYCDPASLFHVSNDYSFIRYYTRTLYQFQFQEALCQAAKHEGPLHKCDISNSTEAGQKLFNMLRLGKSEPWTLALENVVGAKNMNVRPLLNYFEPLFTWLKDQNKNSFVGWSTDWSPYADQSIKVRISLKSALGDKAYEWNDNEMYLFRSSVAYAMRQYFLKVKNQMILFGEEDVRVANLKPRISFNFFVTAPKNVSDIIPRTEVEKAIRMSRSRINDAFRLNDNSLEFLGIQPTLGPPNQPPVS
B1: no binding (tested: 10 µg/ml).
B2: no binding (tested: 10 µg/ml).
B3: no binding (tested: 10 µg/ml).
B4: no binding (tested: 10 µg/ml).
B5: no binding (tested: 10 µg/ml).

What follows are binders tested against T1, human recombinant soluble ACE2 (assay: ELISA screen).
In the case of B1, the “Mean normalized OD” value is reported as 0.116 OD.
In the case of B6, the “Mean normalized OD” value is reported as -0.014 OD.
For B7, the “Mean normalized OD” value was -0.009 OD.
For B8, the “Mean normalized OD” value was -0.506 OD.
With B2 the “Mean normalized OD” value was 0.081 OD.
B9 was tested, and the “Mean normalized OD” value was -0.019 OD.
B10 was tested, and the “Mean normalized OD” value was -0.132 OD.
For B3, the “Mean normalized OD” value was 0.004 OD.
With B11 the “Mean normalized OD” value was -0.013 OD.
For B12, the “Mean normalized OD” value was -0.002 OD.
In the case of B13, the “Mean normalized OD” value is reported as -0.002 OD.
In the case of B14, the “Mean normalized OD” value is reported as -0.001 OD.
For B15, the “Mean normalized OD” value was -0.022 OD.
In the case of B16, the “Mean normalized OD” value is reported as -0.016 OD.
In the case of B17, the “Mean normalized OD” value is reported as -0.005 OD.
With B18 the “Mean normalized OD” value was -0.042 OD.
B19 was tested, and the “Mean normalized OD” value was -0.006 OD.
With B20 the “Mean normalized OD” value was -0.105 OD.
In the case of B4, the “Mean normalized OD” value is reported as 0.002 OD.
In the case of B21, the “Mean normalized OD” value is reported as -0.23 OD.
B22 was tested, and the “Mean normalized OD” value was -0.002 OD.
With B23 the “Mean normalized OD” value was -0.01 OD.
With B5 the “Mean normalized OD” value was 0.2 OD.
B24 was tested, and the “Mean normalized OD” value was -0.073 OD.
With B25 the “Mean normalized OD” value was -0.092 OD.
B26 was tested, and the “Mean normalized OD” value was -0.066 OD.

Each binder was assayed against T2, full-length trimeric SARS-CoV-2 Spike protein (Spike-H6) (SARS-CoV-2, N-glycosylated (22 N-glycosylation sites)) (assay: ELISA screen).
T2 construct: also called trimeric Spike; full-length Spike-H6
B1 was tested, and the “Mean normalized OD” value was 0.083 OD.
With B6 the “Mean normalized OD” value was -0.009 OD.
For B7, the “Mean normalized OD” value was 0.005 OD.
With B8 the “Mean normalized OD” value was -0.106 OD.
In the case of B2, the “Mean normalized OD” value is reported as 0.023 OD.
In the case of B9, the “Mean normalized OD” value is reported as 0.001 OD.
With B10 the “Mean normalized OD” value was 0.006 OD.
In the case of B3, the “Mean normalized OD” value is reported as 0.121 OD.
For B11, the “Mean normalized OD” value was 0.022 OD.
For B12, the “Mean normalized OD” value was 0.001 OD.
For B13, the “Mean normalized OD” value was 0 OD.
B14 was tested, and the “Mean normalized OD” value was 0.002 OD.
B15 was tested, and the “Mean normalized OD” value was 0.001 OD.
For B16, the “Mean normalized OD” value was 0.045 OD.
B17 was tested, and the “Mean normalized OD” value was -0.002 OD.
For B18, the “Mean normalized OD” value was 0.056 OD.
B19 was tested, and the “Mean normalized OD” value was -0.005 OD.
In the case of B20, the “Mean normalized OD” value is reported as 0.046 OD.
B4 was tested, and the “Mean normalized OD” value was 0.002 OD.
B21 was tested, and the “Mean normalized OD” value was -0.016 OD.
For B22, the “Mean normalized OD” value was -0.002 OD.
B23 was tested, and the “Mean normalized OD” value was 0 OD.
With B5 the “Mean normalized OD” value was 0.152 OD.
B24 was tested, and the “Mean normalized OD” value was 1.55 OD.
With B25 the “Mean normalized OD” value was 0.005 OD.
In the case of B26, the “Mean normalized OD” value is reported as 0 OD.

The binders below were run against T3, monomeric SARS-CoV-2 receptor binding domain (RBD-H6) (SARS-CoV-2, UniProt P0DTC2 319-541) (assay: ELISA screen).
T3 construct: Made in HEK293-6E cells; also called RBD Spike; monomeric RBD
In the case of B6, the “Mean normalized OD” value is reported as 0.017 OD.
In the case of B7, the “Mean normalized OD” value is reported as 0.004 OD.
For B8, the “Mean normalized OD” value was 0.024 OD.
For B2, the “Mean normalized OD” value was 0.035 OD.
With B9 the “Mean normalized OD” value was 0.011 OD.
In the case of B10, the “Mean normalized OD” value is reported as 0.039 OD.
For B11, the “Mean normalized OD” value was 0 OD.
B12 was tested, and the “Mean normalized OD” value was 0.001 OD.
B13 was tested, and the “Mean normalized OD” value was 0 OD.
In the case of B14, the “Mean normalized OD” value is reported as 0.001 OD.
For B15, the “Mean normalized OD” value was 0.001 OD.
B16 was tested, and the “Mean normalized OD” value was 0.048 OD.
B17 was tested, and the “Mean normalized OD” value was 0.019 OD.
For B18, the “Mean normalized OD” value was 0.026 OD.
With B19 the “Mean normalized OD” value was 0.01 OD.
B20 was tested, and the “Mean normalized OD” value was -0.021 OD.
With B4 the “Mean normalized OD” value was 0.001 OD.
B21 was tested, and the “Mean normalized OD” value was -0.041 OD.
B22 was tested, and the “Mean normalized OD” value was 0.001 OD.
With B23 the “Mean normalized OD” value was 0 OD.
With B24 the “Mean normalized OD” value was 0.009 OD.
In the case of B25, the “Mean normalized OD” value is reported as 0.002 OD.
With B26 the “Mean normalized OD” value was 0 OD.
